In PMC8600086:
Values joined by “and” are separate entries in the source; they are usually repeats but may differ in a detail not shown here. Equal entries are not always repeated.

Molecular target: recombinant MH8SR-tagged PfKelch13^337-726 (Plasmodium falciparum)
Test: SEC

Q: For “recombinant MH8SR-tagged PfKelch13^337-726 (domain or fragment)”, which stoichiometry N is on record?
A: 2 and 4
